US20230203162A1 (NUMAB THERAPEUTICS, published 2023)

Key:
[1] = biological target: T1, plasma-membranous human MSLN on cell lines (H226, HPAC, H292, OVCAR-3, MeT-5A) (human, UniProt Q13421 296-598); experiment: cELISA on H226 cells, HRP-Protein L
T1 construct: whole, on cells; also called human MSLN on H226 cells; mesothelin on target cells

[2] = biological target: T2, recombinant human MSLN (purchased from Peprotech) (human, UniProt Q13421 296-598, limits assumed); experiment: SPR, MSLN immobilized on CM5, scFv as analyte, 1:1 Langmuir
T2 construct: Bought protein; also called recombinant human mesothelin

[3] = biological target: biotinylated MSLN (human MSLN in the MSLN/MUC16 competition ELISA) (human, UniProt Q13421 296-598, limits assumed, biotinylated); experiment: competition ELISA, scFv titrated with biotinylated MSLN; competitor coated MUC16

B1: anti-MSLN scFv PRO2306 (scFv)
scFv: ALQMTQSPSSLSARVGDRVTIKCQASQSISNYLAWYQQKPGKPPKFLIYDASDLASGVPSRFSGSGSGRDFTLTISSLQPEDFATYYCQQVYDSNNVENVFGTGTKVTVLGGGGGSGGGGSGGGGSGGGGSQSQLVESGGGLVQPGGSLRLSCAVSGFSLSSYAMGWVRQAPGKGLEYIGYISKIGTTYYASWAKGRFTISKDNSKNTVYLQMNSLRAEDTAVYFCARGSSSGGYLDDGFDPWGQGTLVTVSS
notes: also called 54-32-A07-sc06; PRO1925-S14R-T87R-T22K
- EC50 [1]: 3.05 nM
- rel. EC50 (EC50, Amatuximab/EC50, scFv) [1]: 0.026 ratio
- rel. Maximum binding (OD450-690 nm, scFv/OD450-690 nm, Amatuximab) [1]: 0.55 ratio
- Kd [2]: 0.322 nM
- koff [2]: 0.000873 s⁻¹
- kon [2]: 2.72e+06 M⁻¹ s⁻¹

B2: anti-MSLN scFv PRO1925 (scFv)
scFv: ALQMTQSPSSLSASVGDRVTITCQASQSISNYLAWYQQKPGKPPKFLIYDASDLASGVSSRFSGSGSGTDFTLTISSLQPEDFATYYCQQVYDSNNVENVFGTGTKVTVLGGGGGSGGGGSGGGGSGGGGSQSQLVESGGGLVQPGGSLRLSCAVSGFSLSSYAMGWVRQAPGKGLEYIGYISKIGTTYYASWAKGRFTISKDNSKNTVYLQMNSLRAEDTAVYFCARGSSSGGYLDDGFDPWGQGTLVTVSS
notes: also called 54-32-A07-sc02
- EC50 [1]: 1.01 nM
- rel. EC50 (EC50, Amatuximab/EC50, scFv) [1]: 0.11 ratio
- rel. Maximum binding (OD450-690 nm, scFv/OD450-690 nm, Amatuximab) [1]: 0.58 ratio
- Kd [2]: 0.488 nM
- koff [2]: 0.000794 s⁻¹
- kon [2]: 1.63e+06 M⁻¹ s⁻¹
- IC50 [3]: 0.14 nM
- Maximum inhibition at highest sample conc. [3]: 99.2%
- rel. IC50 (IC50, Amatuximab/IC50, scFv) [3]: 0.11 ratio

B3: anti-MSLN scFv PRO2309 (scFv)
scFv: ALQMTQSPSSLSARVGDRVTIKCQASQSISNYLAWYQQKPGKPPKFLIYDASDLASGVPSRFSGSGSGRDFTLTISSLQPEDFATYYCQQVYDSNNVENVFGCGTKVTVLGGGGGSGGGGSGGGGSGGGGSQSQLVESGGGLVQPGGSLRLSCAVSGFSLSSYAMGWVRQAPGKCLEYIGYISKIGTTYYASWAKGRFTISKDNSKNTVYLQMNSLRAEDTAVYFCARGSSSGGYLDDGFDPWGQGTLVTVSS
notes: VL/VH interdomain disulfide variant; also called 54-32-A07-sc09; PRO1925-S14R-T87R-T22K-DIS
- EC50 [1]: 1.13 nM
- rel. EC50 (EC50, Amatuximab/EC50, scFv) [1]: 0.07 ratio
- rel. Maximum binding (OD450-690 nm, scFv/OD450-690 nm, Amatuximab) [1]: 0.78 ratio
- Kd [2]: 0.444 nM
- koff [2]: 0.00138 s⁻¹
- kon [2]: 3.11e+06 M⁻¹ s⁻¹

B4: anti-MSLN scFv PRO1922 (scFv)
scFv: DIQMTQSPSSLSASVGDRVTITCQASESIYSSLAWYQQKPGKAPKLLIYLASTLASGVPSRFSGSGSGTDFTLTISSLQPEDFATYYCQSTDYTTSTHRNSFGTGTKVTVLGGGGGSGGGGSGGGGSGGGGSEVQLVESGGGLVQPGGSLRLSCAASGFSFSTTYYMCWVRQAPGKGLEWIGCTNTASSVRTYYATWAKGRFTISRDNSKNTVYLQMNSLRAEDTAVYYCARDMGFADYALNLWGQGTLVTVSS
notes: also called 54-21-H03-sc01
- EC50 [1]: 0.29 nM
- rel. EC50 (EC50, Amatuximab/EC50, scFv) [1]: 0.52 ratio
- rel. Maximum binding (OD450-690 nm, scFv/OD450-690 nm, Amatuximab) [1]: 0.61 ratio
- Kd [2]: 0.177 nM
- koff [2]: 0.00013 s⁻¹
- kon [2]: 735000 M⁻¹ s⁻¹
- IC50 [3]: 0.05 nM
- Maximum inhibition at highest sample conc. [3]: 99.3%
- rel. IC50 (IC50, Amatuximab/IC50, scFv) [3]: 0.29 ratio
